The text below walks through data of patent US20110177501, “BIOSENSOR FOR DETECTION AND VISUALISATION OF SINGLE-STRANDED DNA” (MEDICAL RESEARCH COUNCIL, published 2011).

In one data set the target is MDCC-E. coli SSB (G26C) (Escherichia coli, UniProt P0AGE0 SEQ:1-177, G26C). The data set can be described thus: 25 mM Tris pH 7.5, 200 mM NaCl, 30 C. The settings on record: tags: MDCC label on Cys26; chain copies: 4 (stated, tetramer). How it is done:
(§1) In order to obtain a molecule suitable for solution measurements, a suitably large fluorescence increase on binding DNA, together with reasonably bright fluorescence quantum yield are the main criteria. Fluorescence spectra of 250 nM labeled E. coli SSB (tetramer concentration) were measured at 30° C. in 25 mM Tris.HCl pH 7.5, 200 mM NaCl, 1 mM DTT, and 5 μM bovine serum albumin.
(§2) Excitation was at the appropriate wavelength for the fluorophore and the emission intensities at the maximum were measured in the absence and presence of saturating dT₇₀. The two coumarins, IDCC and MDCC gave the largest fluorescence enhancement with G26C and this mutant protein labeled with IDCC, IDCC-E. coli SSB, was chosen for further study for two reasons. Firstly it gave consistently a larger increase than MDCC. […] In the case of MDCC, reaction of its maleimide with a protein cysteine causes the production of diastereoisomers. […] In contrast, reaction of IDCC with a thiol should produce only a single molecular species.

Data set [1] has as its target 6-IATR-E. coli SSB (G26C) (Escherichia coli, UniProt P0AGE0 SEQ:1-177, G26C). In words: 25 mM Tris pH 7.5, 200 mM NaCl, 30 C. The settings on record: tags: 6-IATR label on Cys26; chain copies: 4 (stated, tetramer). How it is done:
as §1, §2

Another data set concerns the target MDCC-E. coli SSB (S92C) (Escherichia coli, UniProt P0AGE0 SEQ:1-177, S92C). In words: 25 mM Tris pH 7.5, 200 mM NaCl, 30 C. The settings on record: tags: MDCC label on Cys92; chain copies: 4 (stated, tetramer). The protocol: as §1, §2
Data set [2] addresses Alexa Fluor 546-E. coli SSB (G26C) (Escherichia coli, UniProt P0AGE0 SEQ:1-177, G26C). In words: 25 mM Tris pH 7.5, 200 mM NaCl, 30 C. As to conditions: tags: Alexa Fluor 546 label on Cys26; chain copies: 4 (stated, tetramer). How it is done:
as §1, §2

The target in data set [3] is T1, IDCC-E. coli SSB (G26C) (Escherichia coli, UniProt P0AGE0 SEQ:1-177, G26C (mature protein numbering as printed)). The data set can be described thus: 25 mM Tris pH 7.5, 200 mM NaCl, 30 C. The settings on record: tags: IDCC diethylaminocoumarin label on Cys26; chain copies: 4 (stated, tetramer). How it is done:
as §1, §2

Data set [4] concerns the target Alexa Fluor 488-E. coli SSB (S92C) (Escherichia coli, UniProt P0AGE0 SEQ:1-177, S92C). The data set can be described thus: 25 mM Tris pH 7.5, 200 mM NaCl, 30 C. The settings on record: tags: Alexa Fluor 488 label on Cys92; chain copies: 4 (stated, tetramer). How it is done:
as §1, §2

The next data set has as its target MIANS-E. coli SSB (S92C) (Escherichia coli, UniProt P0AGE0 SEQ:1-177, S92C). The data set can be described thus: 25 mM Tris pH 7.5, 200 mM NaCl, 30 C. As to conditions: tags: MIANS label on Cys92; chain copies: 4 (stated, tetramer). The protocol:
as §1, §2

Data set [5] addresses Alexa Fluor 488-E. coli SSB (G26C) (Escherichia coli, UniProt P0AGE0 SEQ:1-177, G26C). In words: 25 mM Tris pH 7.5, 200 mM NaCl, 30 C. As to conditions: tags: Alexa Fluor 488 label on Cys26; chain copies: 4 (stated, tetramer). How it is done:
as §1, §2

The next data set concerns the target IDCC-E. coli SSB (S92C) (Escherichia coli, UniProt P0AGE0 SEQ:1-177, S92C). In words: 25 mM Tris pH 7.5, 200 mM NaCl, 30 C. As to conditions: tags: IDCC label on Cys92; chain copies: 4 (stated, tetramer). How it is done:
as §1, §2

For data set [6], the target named is Alexa Fluor 546-E. coli SSB (S92C) (Escherichia coli, UniProt P0AGE0 SEQ:1-177, S92C). In words: 25 mM Tris pH 7.5, 200 mM NaCl, 30 C. The settings on record: tags: Alexa Fluor 546 label on Cys92; chain copies: 4 (stated, tetramer). The protocol: as §1, §2
Data set [7] addresses 6-IATR-E. coli SSB (S92C) (Escherichia coli, UniProt P0AGE0 SEQ:1-177, S92C). The data set can be described thus: 25 mM Tris pH 7.5, 200 mM NaCl, 30 C. As to conditions: tags: 6-IATR label on Cys92; chain copies: 4 (stated, tetramer). The protocol: as §1, §2
The target of data set [8] is T1, IDCC-E. coli SSB (G26C). The data set can be described thus: competition; ratio Kd(IDCC-SSB)/Kd(unlabeled SSB); 200 mM NaCl, 30 C. As to conditions: tags: IDCC diethylaminocoumarin label on Cys26; chain copies: 4 (stated, tetramer). How it is done: as §1
(§3) In order to determine the effect of labeling on the affinity of E. coli SSB for ssDNA, dT₇₀ was titrated into a mixture of unlabeled E. coli SSB and IDCC-E. coli SSB (FIG. 4). It is apparent that low concentrations of DNA bind mainly to the unlabeled E. coli SSB, as there is only a small increase in fluorescence. This implies that the unlabeled protein has the higher affinity.

The target in data set [9] is unlabeled E. coli SSB (S92C) (Escherichia coli, UniProt P0AGE0 SEQ:1-177, S92C (mature protein numbering as printed)). In words: competition; binds dT70 28-fold more tightly than IDCC-SSB. As to conditions: chain copies: 4 (stated, tetramer). The protocol: as §1, §3
In data set [10] the target is 6-IATR-E. coli SSB (W88C) (Escherichia coli, UniProt P0AGE0 SEQ:1-177, W88C (mature protein numbering as printed)). The data set can be described thus: tight binding, saturates at 1:1 dT70:tetramer; 200 mM NaCl. The settings on record: tags: 6-IATR rhodamine label on Cys88; chain copies: 4 (stated, tetramer).

B1: dT70 (ssDNA)
DNA: TTTTTTTTTTTTTTTTTTTTTTTTTTTTTTTTTTTTTTTTTTTTTTTTTTTTTTTTTTTTTTTTTTTTTT
On to B1, for which the activity is 4.9 fluorescence ratio +/- dT70 with MDCC-E. coli SSB (G26C); 2.8 fluorescence ratio +/- dT70 in [1]; 2.2 fluorescence ratio +/- dT70 with MDCC-E. coli SSB (S92C); 2.3 fluorescence ratio +/- dT70 in data set [2]; 6.1 fluorescence ratio +/- dT70 with IDCC-E. coli SSB (G26C) [3]; 3.1 fluorescence ratio +/- dT70 in data set [4]. The activity with MIANS-E. coli SSB (S92C) is 0.4 fluorescence ratio +/- dT70; in data set [5], 3.3 fluorescence ratio +/- dT70; with IDCC-E. coli SSB (S92C) it was 2.8 fluorescence ratio +/- dT70; in [6] it was 1.5 fluorescence ratio +/- dT70; in data set [7], 1.3 fluorescence ratio +/- dT70; in data set [10], ~4.5 fold fluorescence (+/- DNA). Besides, the binding signal in the data set with IDCC-E. coli SSB (G26C) [8] is 28 fold Kd vs unlabeled SSB S92C. Besides, the binding result in data set [9] is given as “binds”.
